The test has as its target highest binding amyloid (in vitro). As to the kind of experiment: calculated from in vitro binding of the antibody to amyloid; method not described.

B1: CAEL-101 antibody having a heavy chain variable domain (VH) as set forth in SEQ ID NO:1 and a light chain variable domain (VL) as set forth in SEQ ID NO:2 (antibody, human IgG1, V domains shown)
VH: QVQLKESGPGLVAPSQSLSITCTVSGFSLSSYGVSWVRQPPGKGLEWLGVIWGDGSTNYHPNLMSRLSISKDISKSQVLFKLNSLQTDDTATYYCVTLDYWGQGTSVTVSS
VL: DVVMTQTPLSLPVSLGDQASISCRSSQSLVHRNGNTYLHWYLQKPGQSPKLLIYKVSNRFSGVPDRFSGSGSGTDFTLKISRVEAEDLGLYFCFQTTYVPNTFGGGTKLEIK
For the molecule B1, the Michaelis-Menton EC 90 (calculated) was 36.5 µg/mL.

Source of the values: patent US20240392028A1.
